Measurements as given in publication PMC12589211, “Development of lisinopril radioconjugates for nuclear imaging of the angiotensin converting enzyme” (European Journal of Nuclear Medicine and Molecular Imaging, 2025).

Assays:
[1] = tested on: human blood plasma proteins; test: in vitro; format: in vitro ADME; conditions: 30 min, 0.1 µM
Protocol: (§1) The n-octanol/phosphate buffered saline (PBS) distribution coefficients (logD values) of the radioconjugates (20 MBq/nmol) were determined using the shake-flask method, as previously reported (Supplementary material). The binding affinity of the radioconjugates (20 MBq/nmol) to serum proteins was assessed using an ultrafiltration assay as previously reported (Supplementary Material). Methods: The plasma protein binding of the radioconjugates (20 MBq/nmol) was assessed using mouse blood plasma (Lot N°: 32321, Rockland Immunochemicals, Inc., USA,; concentration of mouse serum albumin (MSA): ⁓550 µM) and human blood plasma (Stiftung Blutspende SRK Aargau-Solothurn, Switzerland; concentration of human serum albumin (HSA): ⁓800 µM), respectively. After incubation in mouse and human blood plasma (0.3 MBq in 150 μL) for 30 min at 37 °C, the samples were cooled on ice and diluted with ice-cold PBS (150 μL). The plasma protein-bound fraction was separated from the free (plasma protein-unbound) fraction of each sample by means of Amicon centrifugal filters (Amicon Ultra, 0.5 mL, Merck Millipore; cutoff 10 kDa) by ultrafiltration using a centrifuge (14000 rcf, 30 min at 4 °C). Afterwards, the filter inserts were inverted and centrifuged again (200 rcf) for 3 min to recover the protein-bound fraction of the radioconjugates. The activities of the free radioconjugates in the filtrate, as well as in the filter insert and the plasma protein-bound radioconjugate (bound), were counted for activity separately using a γ-counter (Wallac Wizard 1480, PerkinElmer). The total activity (total) was determined as the sum of the activities in the filtrate, filter insert, and protein-bound fractions. The percentage of radioconjugate bound to MSA and HSA was calculated as Abound/Atotal*100. The results were presented as average ± SD of 3 independent experiments.

[2] = tested on: mouse blood plasma proteins; test: in vitro; format: in vitro ADME; conditions: 30 min, 0.1 µM
Protocol: as §1

in vivo = conditions: female, mouse, iv, 3 MBq
Protocol: All applicable international, national, and/or institutional guidelines for the care and use of laboratory animals were followed and the animal experiments were carried out according to the guidelines of the Swiss Regulations for Animal Welfare. Preclinical studies were ethically approved by the Cantonal Committee of Animal Experimentation and permitted by the responsible cantonal authorities (License N° 75743). Five-week-old female Crl: CD1-Foxn^nu (CD1/nude) mice were obtained from Charles River Laboratories (Sulzfeld, Germany) and fed with standard rodent chow ad libitum. The mice were subcutaneously inoculated with HEK-ACE (8 × 10^6 cells in 100 µL PBS) on the left shoulder and approximately one week later with HEK-ACE2 cells (4–6 × 10^6 cells in 100 µL PBS) on the right shoulder. Imaging and biodistribution studies were performed 2‒4 weeks later when the xenografts reached a size of 100–300 mm^3.
Mice were intravenously injected with 3 MBq [^67Ga]Ga-DOTA-LIS-02 or 3 MBq [^67Ga]Ga-NODAGA-LIS-02 (0.5 nmol, 100 µL) or 3 MBq [^44Sc]Sc-DOTA-LIS-02 (1 nmol, 100 µL) diluted in saline containing 0.05% bovine serum albumin (BSA). The mice were sacrificed 1 h and 3 h after administration of the respective radioconjugate. Selected tissues and organs were collected, weighed and counted for activity using the γ-counter. The results were listed as a percentage of the injected activity per gram of tissue mass (% IA/g), using counts of a defined volume of the original injection solution measured at the same time to calculate decay-corrected values. Statistical analysis was performed by applying a regular one-way ANOVA test with a Tukey’s multiple comparison post‐hoc test to compare the data of the radioconjugates. A p-value of < 0.05 was considered as statistically significant (GraphPad Prism software, version 8.3.1).

physchem = format: physicochemical; conditions: pH 7.4, logD value (n-octanol/PBS distribution coefficient)
Protocol: The n-octanol/phosphate buffered saline (PBS) distribution coefficients (logD values) of the radioconjugates (20 MBq/nmol) were determined using the shake-flask method, as previously reported (Supplementary material). The binding affinity of the radioconjugates (20 MBq/nmol) to serum proteins was assessed using an ultrafiltration assay as previously reported (Supplementary Material). Methods: A fixed amount of the respective radioconjugate (0.5 MBq, 25 µL) was added to radio-immunoassay (RIA) tubes containing a mixture of PBS pH 7.4 (1475 µL) and n-octanol (1500 µL). After vortexing vigorously for 1 min, the tubes were centrifuged (560 rcf) for 6 min to obtain phase separation. The activity in the organic and aqueous phases was determined using a γ-counter (Wallac Wizard 1480, PerkinElmer). The distribution coefficients were expressed as the logarithm of the ratio of counts per minute (cpm) measured in the n-octanol phase to the cpm measured in the PBS pH 7.4 phase and indicated as the average of three independent measurements ± SD, each performed with five replicates.

in vitro = in vitro ADME; conditions: plasma
Protocol: as §1

[3] = CD1/nude (Crl:CD1-Foxn nu), 1 h
[4] = CD1/nude (Crl:CD1-Foxn nu), 3 h
[5] = Crl:CD1-Foxn^nu (CD1/nude), 1 h
[6] = Crl:CD1-Foxn^nu (CD1/nude), 3 h

## O=C(O)CN1CCN(CC(=O)O)CCN(CC(=O)NCCCC[C@H](NC(=O)CCCCCCCNC(=O)NCCCC[C@H](N[C@@H](CCc2ccccc2)C(=O)O)C(=O)N2CCC[C@H]2C(=O)O)C(=O)O)CCN(CC(=O)O)CC1 [[^44Sc]Sc-DOTA-LIS-02] [metal not drawn]
[1]
  Fraction bound to human blood plasma proteins: 49 ± 2%
[2]
  Fraction bound to mouse blood plasma proteins: 42 ± 4%
In vivo; [3]
  Biodistribution, Blood: 0.24 ± 0.03 %IA/g
  Biodistribution, Bone: 0.17 ± 0.02 %IA/g
  Biodistribution, Intestines: 0.16 ± 0.02 %IA/g
  Biodistribution, Liver: 0.14 ± 0.01 %IA/g
  Biodistribution, Muscle: 0.16 ± 0.02 %IA/g
  Biodistribution, Salivary glands: 0.19 ± 0.02 %IA/g
  Biodistribution, Stomach: 0.22 ± 0.15 %IA/g
In vivo; [4]
  Biodistribution, Bone: 0.07 ± 0.03 %IA/g
  Biodistribution, Intestines: 0.05 ± 0.01 %IA/g
  Biodistribution, Liver: 0.09 ± 0.01 %IA/g
  Biodistribution, Muscle: 0.07 ± 0.04 %IA/g
  Biodistribution, Salivary glands: 0.09 ± 0.05 %IA/g
  Biodistribution, Stomach: <0.05 %IA/g
In vivo; [5]
  Biodistribution, Heart: 0.18 ± 0.03 %IA/g
  Biodistribution, Kidneys: 6.1 ± 0.8 %IA/g
  Biodistribution, Lung: 2.0 ± 0.6 %IA/g
  Biodistribution, Spleen: 0.14 ± 0.05 %IA/g
In vivo; [6]
  Biodistribution, Blood: <0.05 %IA/g
  Biodistribution, Heart: <0.05 %IA/g
  Biodistribution, Kidneys: 0.75 ± 0.07 %IA/g
  Biodistribution, Lung: 0.13 ± 0.02 %IA/g
  Biodistribution, Spleen: 0.06 ± 0.01 %IA/g

## O=C(O)CN1CCN(CC(=O)O)CCN(CC(=O)NCCCC[C@H](NC(=O)CCCCCNC(=O)NCCCC[C@H](N[C@@H](CCc2ccccc2)C(=O)O)C(=O)N2CCC[C@H]2C(=O)O)C(=O)O)CCN(CC(=O)O)CC1 [[^67Ga]Ga-DOTA-LIS-01, metal not drawn]
physchem
  logD: -5.47 ± 0.17
In vitro; human, Fraction bound to human blood plasma proteins
  fraction unbound at 30 min, 0.1 µM: 0.55
In vitro; mouse, Fraction bound to mouse blood plasma proteins
  fraction unbound at 30 min, 0.1 µM: 0.54
